Reference: article PMC9714796

Molecular target: TGF-βRII-Fc (muTGFbRII-mFc) (mouse (from the printed name muTGFbRII-mFc)) (UniProt Q62312)
Experiment: SPR; Biacore T100; TGF-βRII-Fc captured (~50 RU) by an anti-mouse Fc antibody amine-coupled to a CM5 chip; TGF-β2 injected at 0.04-90 nM (0.12-90 nM used for the fit); HBS-EP with 350 mM NaCl and 0.5 mg/mL BSA; steady-state affinity model

TGF-βRII-Fc (muTGFbRII-mFc) (mouse (from the printed name muTGFbRII-mFc)), sequence (Q62312 24-166): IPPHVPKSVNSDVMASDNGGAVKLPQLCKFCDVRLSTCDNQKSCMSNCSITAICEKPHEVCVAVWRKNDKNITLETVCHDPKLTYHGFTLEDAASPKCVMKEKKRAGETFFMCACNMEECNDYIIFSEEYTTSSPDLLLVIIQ

A Kd of 11.6 nM was found for “Transforming growth factor-β2 (TGF-β2) (ligand)” in this work.
